Values of other authors in article PMC6731456.

Target: Apelin receptor (Homo sapiens) (UniProt P35414)
Chain of UniProt P35414 (P35414 whole entry): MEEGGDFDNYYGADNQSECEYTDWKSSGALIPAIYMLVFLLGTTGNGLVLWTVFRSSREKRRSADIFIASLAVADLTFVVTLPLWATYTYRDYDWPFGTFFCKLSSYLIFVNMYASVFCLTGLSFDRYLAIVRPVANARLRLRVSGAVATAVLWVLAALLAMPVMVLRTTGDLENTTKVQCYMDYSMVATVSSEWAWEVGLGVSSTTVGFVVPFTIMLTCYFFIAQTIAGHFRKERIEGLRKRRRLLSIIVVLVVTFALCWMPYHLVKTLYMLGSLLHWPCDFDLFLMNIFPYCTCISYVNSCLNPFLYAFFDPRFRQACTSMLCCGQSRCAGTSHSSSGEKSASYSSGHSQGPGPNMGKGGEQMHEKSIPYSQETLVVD

Ki: 390 nM
Substance: Protamine (from UniProt P69014)
